Broadly, the EC50 is the concentration giving half of the maximal effect. A higher EC50 goes with a need for much substance.

Data on 20 molecules can be found in patent publication US20210101937A1 (Bicycle, published 2021).

*1 amine or outer side, *2 acyl side, *3 side chain or, on linkers, in order; H or OH if unused. Bridges are numbered along the chain shown (N, C = ends). Roman numbers before positions name the chains, in order. Where no end group is shown, it is not given here. [ ]: non-standard residue; d: D form. The star is where a group is joined. TATA = O=C(CC[*:1])N1CN(C(=O)CC[*:2])CN(C(=O)CC[*:3])C1; 1Nal = N[C@@H](Cc1cccc2ccccc12)C(=O)O; Hyp = O=C(O)[C@@H]1C[C@@H](O)CN1; hArg = N=C(N)NCCCC[C@H](N)C(=O)O; tBuAla = CC(C)(C)C[C@H](N)C(=O)O; NMeA = CN[C@@H](C)C(=O)O; Nle = CCCC[C@H](N)C(=O)O; Pent4ynoyl = C#CCCC(=O)*; dNMeA = CN[C@H](C)C(=O)O; βAla = NCCC(=O)O

Experiment in all cases: cell-based or functional assay
The target in test [1] is T1, CD137 (UniProt Q07011 24-255, limits assumed).
T1 sequence (Q07011 24-255 limits assumed): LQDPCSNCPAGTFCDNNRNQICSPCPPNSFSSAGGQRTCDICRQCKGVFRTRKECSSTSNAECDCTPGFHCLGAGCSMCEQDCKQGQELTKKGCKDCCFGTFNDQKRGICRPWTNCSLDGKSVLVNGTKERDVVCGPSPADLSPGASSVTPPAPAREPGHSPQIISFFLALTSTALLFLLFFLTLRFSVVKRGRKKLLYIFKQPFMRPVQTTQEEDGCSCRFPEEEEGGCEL
The target in test [2] is T1, CD137. This is another data set of the same source.
The target of test [3] is T1, CD137. This is another data set of the same source.

B1: BCY12585 (peptide)
peptide 1: CP[1Nal][dE]CM[hArg]EWSTP[Hyp]WC
peptide 2: Ac-C[tBuAla]PE[dK](Pent4ynoyl)PYCFADPY[Nle]CA
modifications: linker I:1-I:5-I:15, II:1-II:8-II:15 via TATA; not fully specified (bridges); printed as CP[1Nal][dE]CM[HArg]EWSTP[HyP]WC / Ac-C[tBuAla]PE[D-Lys(PYA)]PYCFADPY[Nle]CA; also: chain 1 N-terminus joined to chain 2 dLys(PYA) by Peg5 linker (heterotandem complex)
As to B1, in the test with CD137 [1], the “Fold improvement in EC50 over BCY10000 on same plate” value turned out to be 1.31 fold and the “Fold improvement in Emax over BCY10000 on same plate” value stood at 1.5 fold.

B2: BCY12242 (peptide)
peptide 1: DXCSAGWLTMCQKLKLCPSH
peptide 2: CXPEXPYCFADPYXCA
modifications: Ac-C[tBuAla]PE[D-Lys(PYA)]PYCFADPY[Nle]CA; Cys residues bonded to TATA scaffold; [Ac]D[HArg]CSAGWLTMCQK(Ac)LKLCPSH; Cys residues bonded to TATA scaffold
For B2, in the test with CD137 [2], the response was half-maximal at 0.02 µM (EC50) and the “Fold Induction over background” value was 13 fold over background.

B3: BCY12236 (peptide)
peptide 1: AXDCXKVNPLCLHPDWXC
peptide 2: CXPEKPYCFADPYXCA
modifications: Ac-C[tBuAla]PE[D-Lys]PYCFADPY[Nle]CA; Cys residues bonded to TATA scaffold; [Ac]A[HArg]DC[HyP]K(PYA)VNPLCLHP[dD]W[HArg]C; Cys residues bonded to TATA scaffold
B3: in the test with CD137 [3], the “Fold improvement in EC50 over BCY9173 on same plate” value turned out to be 1.4 fold and the “Fold improvement in Emax over BCY9173 on same plate” value came to 0.8 fold.

B4: BCY12709 (peptide)
peptide 1: CP[1Nal][dD]CM[hArg]DWSTP[Hyp]WC
peptide 2: Ac-C[tBuAla]PE[dK](Pent4ynoyl)PYCFAD[NMeA]Y[Nle]C
modifications: linker I:1-I:5-I:15, II:1-II:8-II:15 via TATA; not fully specified (bridges); also: chain 1 N-terminus joined to chain 2 dLys(PYA) by Peg5 linker (heterotandem complex)
As for B4, in the test with CD137 [1], the “Fold improvement in EC50 over BCY10000 on same plate” value was determined as 0.08 fold and the “Fold improvement in Emax over BCY10000 on same plate” value stood at 2.15 fold.

B5: BCY12234 (peptide)
peptide 1: AXDCXLVNPLCLHPDWXCK
peptide 2: CXPEKPYCFADPYXCA
modifications: Ac-C[tBuAla]PE[D-Lys]PYCFADPY[Nle]CA; Cys residues bonded to TATA scaffold; [Ac]A[HArg]DC[HyP]LVNPLCLHP[dD]W[HArg]CK(PYA); Cys residues bonded to TATA scaffold
For the molecule B5, in the test with CD137 [3], the “Fold improvement in EC50 over BCY9173 on same plate” value stood at 1 fold and the “Fold improvement in Emax over BCY9173 on same plate” value was determined as 0.8 fold.

B6: BCY12375 (peptide)
peptide 1: SDKCSAGWLTMCQKLHLCPSH
peptide 2: CXEEKPYCFADPYXCX
modifications: [Ac]C[tBuAla]EE(dK)PYCFADPY[Nle]C[Dap(PYA)]; carries Palmitic acid-PEG10 (Example 1); Cys residues bonded to TATA scaffold; Ac-SDKCSAGWLTMCQK[PYA]LHLCPSH; Cys residues bonded to TATA scaffold
With B6, in the test with CD137 [2], the “EC50” value was determined as 0.022 µM and the “Fold Induction over background” value was found to be 3 fold over background.

B7: BCY12229 (peptide)
peptide 1: DXCSAGWLTMCQKLHLCPSH
peptide 2: CXPEXPYCFADPYXCA
modifications: Ac-C[tBuAla]PE[D-Lys(PYA)]PYCFADPY[Nle]CA; Cys residues bonded to TATA scaffold; [Ac]D[HArg]CSAGWLTMCQKLHLCPSH; Cys residues bonded to TATA scaffold
As to B7, in the test with CD137 [2], the “EC50” value is 0.018 µM and the “Fold Induction over background” value is 8 fold over background.

B8: BCY12377 (peptide)
peptide 1: CPXDCMXDWSTPXWC
peptide 2: CXEEKPYCFADPYXC
modifications: [Ac]C[tBuAla]EE[dK(PYA)]PYCFADPY[Nle]C; Cys residues bonded to TATA scaffold; CP[1Nal][dD]CM[HArg]DWSTP[HyP]WC; Cys residues bonded to TATA scaffold
Turning to B8, in the test with CD137 [1], the “Fold improvement in EC50 over BCY10000 on same plate” value amounted to 0.78 fold and the “Fold improvement in Emax over BCY10000 on same plate” value amounted to 1.37 fold.

B9: BCY11618 (peptide)
peptide 1: Pent4ynoyl-[βAla]CP[1Nal][dK]CM[hArg]DWSTP[Hyp]WC
peptide 2: Ac-C[tBuAla]PE[dK]PYCFADPY[Nle]CA
modifications: linker I:2-I:6-I:16, II:1-II:8-II:15 via TATA; linker II:N-II:5 via Peg5; not fully specified (some residues); also: palmitic acid on dK of chain 1
B9: in the test with CD137 [1], the “Fold improvement in EC50 over BCY10000 on same plate” value was found to be 0.09 fold and the “Fold improvement in Emax over BCY10000 on same plate” value was 2.59 fold.

B10: BCY12020 (peptide)
peptide 1: XCPXDCMXDWSTPXWC
peptide 2: CXPEKPYCFADPYXCX
modifications: [Ac]C[tBuAla]PE[dK]PYCFADPY[Nle]C[Dap(PYA)]; carries Palmitic acid-PEG10 (Example 7); Cys residues bonded to TATA scaffold; [PYA][B-Ala]CP[1Nal][dD]CM[HArg]DWSTP[HyP]WC; Cys residues bonded to TATA scaffold
With B10, in the test with CD137 [1], the “Fold improvement in EC50 over BCY10000 on same plate” value stood at 0.15 fold and the “Fold improvement in Emax over BCY10000 on same plate” value is 0.48 fold.

B11: BCY12235 (peptide)
peptide 1: AXDCXLVNPLCLKPDWXC
peptide 2: CXPEKPYCFADPYXCA
modifications: Ac-C[tBuAla]PE[D-Lys]PYCFADPY[Nle]CA; Cys residues bonded to TATA scaffold; [Ac]A[HArg]DC[HyP]LVNPLCLK(PYA)P[dD]W[HArg]C; Cys residues bonded to TATA scaffold
On to B11, for which, in the test with CD137 [3], the “Fold improvement in EC50 over BCY9173 on same plate” value is 1.1 fold and the “Fold improvement in Emax over BCY9173 on same plate” value turned out to be 0.8 fold.

B12: BCY12230 (peptide)
peptide 1: DXCSKGWLTMCQKLHLCPSH
peptide 2: CXPEXPYCFADPYXCA
modifications: Ac-C[tBuAla]PE[D-Lys(PYA)]PYCFADPY[Nle]CA; Cys residues bonded to TATA scaffold; [Ac]D[HArg]CSKGWLTMCQK(Ac)LHLCPSH; Cys residues bonded to TATA scaffold
Regarding B12, in the test with CD137 [2], the “EC50” value is 0.046 µM and the “Fold Induction over background” value stood at 10 fold over background.

B13: BCY11860 (peptide)
peptide 1: Pent4ynoyl-[βAla]CP[1Nal][dK]CM[hArg]DWSTP[Hyp]WC
peptide 2: Ac-C[tBuAla]PE[dK]PYCFADPY[Nle]CA
modifications: linker I:2-I:6-I:16, II:1-II:8-II:15 via TATA; linker II:N-II:5 via Peg5; also: two bicycles joined by Peg5 linker, further acylated with a reagent shown only in a drawing
With B13, in the test with CD137 [1], the “Fold improvement in EC50 over BCY10000 on same plate” value amounted to 0.29 fold and the “Fold improvement in Emax over BCY10000 on same plate” value amounted to 1.53 fold.

B14: BCY12233 (peptide)
peptide 1: Pent4ynoyl-A[hArg]DC[Hyp]LVNPLCLHP[dD]W[hArg]C
peptide 2: Ac-C[tBuAla]PE[dK]PYCFADPY[Nle]CA
modifications: linker I:4-I:11-I:18, II:1-II:8-II:15 via TATA; linker II:N-II:5 via Peg5; also: two bicycles joined by Peg5 linker
As for B14, in the test with CD137 [3], the “Fold improvement in EC50 over BCY9173 on same plate” value worked out at 1 fold and the “Fold improvement in Emax over BCY9173 on same plate” value was determined as 0.9 fold.

B15: BCY12379 (peptide)
peptide 1: CPXDCMXDWSTPXWC
peptide 2: CXPEKPYCFADPYXC
modifications: [Ac]C[tBuAla]PE[dK(PYA)]PYCFADPY[Nle]C; Cys residues bonded to TATA scaffold; CP[1Nal][dD]CM[HArg]DWSTP[HyP]WC; Cys residues bonded to TATA scaffold
B15: in the test with CD137 [1], the “Fold improvement in EC50 over BCY10000 on same plate” value stood at 0.91 fold and the “Fold improvement in Emax over BCY10000 on same plate” value is 1.29 fold.

B16: BCY12710 (peptide)
peptide 1: CP[1Nal][dD]CM[hArg]DWSTP[Hyp]WC
peptide 2: Ac-C[tBuAla]PE[dK](Pent4ynoyl)PYCFAD[dNMeA]Y[Nle]C
modifications: linker I:1-I:5-I:15, II:1-II:8-II:15 via TATA; not fully specified (bridges); also: chain 1 N-terminus joined to chain 2 dLys(PYA) by Peg5 linker (heterotandem complex)
Regarding B16, in the test with CD137 [1], the “Fold improvement in EC50 over BCY10000 on same plate” value came to 0.16 fold and the “Fold improvement in Emax over BCY10000 on same plate” value worked out at 1.41 fold.

B17: BCY12583 (peptide)
peptide 1: CP[1Nal][dE]CL[hArg]DWSTP[Hyp]WC
peptide 2: Ac-C[tBuAla]PE[dK](Pent4ynoyl)PYCFADPY[Nle]CA
modifications: linker I:1-I:5-I:15, II:1-II:8-II:15 via TATA; not fully specified (bridges); printed as CP[1Nal][dE]CL[HArg]DWSTP[HyP]WC / Ac-C[tBuAla]PE[D-Lys(PYA)]PYCFADPY[Nle]CA; also: chain 1 N-terminus joined to chain 2 dLys(PYA) by Peg5 linker (heterotandem complex)
As to B17, in the test with CD137 [1], the “Fold improvement in EC50 over BCY10000 on same plate” value was found to be 0.6 fold and the “Fold improvement in Emax over BCY10000 on same plate” value was found to be 1.47 fold.

B18: BCY12661 (peptide)
peptide 1: XPXDCMXDWSTPXWC
peptide 2: CXEEKPYCFADPYXCX
modifications: [Ac]C[tBuAla]EE(dK)PYCFADPY[Nle]C[Dap(PYA)]; carries the palmitic acid azide of Example 8 (palmitic acid, γGlu, Lys(N3)); Cys residues bonded to TATA scaffold; [PYA]CP[1Nal][dD]CM[HArg]DWSTP[HyP]WC; Cys residues bonded to TATA scaffold
In the case of B18, in the test with CD137 [1], the “Fold improvement in EC50 over BCY10000 on same plate” value worked out at 0.34 fold and the “Fold improvement in Emax over BCY10000 on same plate” value was found to be 0.5 fold.

B19: BCY12237 (peptide)
peptide 1: AXDCXLVNPLCKHPDWXC
peptide 2: CXPEKPYCFADPYXCA
modifications: Ac-C[tBuAla]PE[D-Lys]PYCFADPY[Nle]CA; Cys residues bonded to TATA scaffold; [Ac]A[HArg]DC[HyP]LVNPLCK(PYA)HP[dD]W[HArg]C; Cys residues bonded to TATA scaffold
As for B19, in the test with CD137 [3], the “Fold improvement in EC50 over BCY9173 on same plate” value came to 1 fold and the “Fold improvement in Emax over BCY9173 on same plate” value worked out at 0.8 fold.

B20: BCY11776 (peptide)
peptide 1: CPXDCMXDWSTPXWC
peptide 2: CXPEKPYCFADPYXCX
modifications: not fully specified; [Ac]C[tBuAla]PE[dK]PYCFADPY[Nle]C[Dap(PYA)]; dK carries palmitic acid (Example 5); Cys residues bonded to TATA scaffold; CP[1Nal][dD]CM[HArg]DWSTP[HyP]WC; Cys residues bonded to TATA scaffold
B20: in the test with CD137 [1], the “Fold improvement in EC50 over BCY10000 on same plate” value came out at 0.05 fold and the “Fold improvement in Emax over BCY10000 on same plate” value was determined as 0.07 fold.
